In patent US20240218057A1 (ROCKEFELLER UNIVERSITY, published 2024):

Biological target: T1, SARS-COV-2 RBD (SARS-COV-2, UniProt P0DTC2 319-539)
T1 construct: also called WT RBD
Assay: ELISA, RBD coated

Row | Binder | EC50 [ng/mL]
1 | C1029 (antibody, V domains shown, IgG; V domains only) VH: QVQLVESGGGVVQPGRSLRLSCAASGFTFSSFGMHWVRQAPGKGLEWVAVISYDGSYKDYGDSVKGRFTISRDNSKNTLYLQMNSLRAEDTAVYYCARDSNVDTVMVTWFDYWGRGTLVTVSS VL: not shown | 2.86
2 | C1012 (antibody, V domains shown, IgG; V domains only) VH: QVQLVQSGAEVKKPGSSVKVSCKASGGTVNNYAINWVRQAPGQGLEWMGGIVPIFGTPNYAQKFQGRVTITADESTSTAYMELSSLRSEDTAVYYCAKVSLTLPIAAAPRFWFDSWGQGTLVTVSS VL: EIVMTQSPATLSVSPGERATLSCRASQSVSSHLAWYQQKPGQAPRLLIYGASTRATGIPARFSGSGSGTEFTLTISSLQSEDFAVYYCQQYHNWPPALTFGGGTKVEIK | 3.29
3 | C1013 (antibody, V domains shown, IgG; V domains only) VH: QVQLVQSGVEVKKPGSSVKVSCKASGGTFTDYAFSWVRQAPGQGLEWMGGIVPIFATPDYAEKFRGRVTITADESTSTAYMELSTLKSEDTAVYYCARASLTLPIRAAPRFWFDAWGQGTLVTVSS VL: EIVMTQSPATLSVSPGERATLSCRASQGVSTHLAWYQQKPGQAPRLLIYGASTRATGIPARFSGSGSGTEFTLTISSLQSEDFAVYYCQQYHKWPPALTFGGGTKVEIK | 8.92
4 | C1032 (antibody, V domains shown, IgG; V domains only) VH: EVQLVESGGSLVKPGGSLRLSCVASGLTFNHAWMSWVRQAPGKGLEWVGRIKSKIDGGTTDYAAPVKGRFTISRDDSKSTQYLQMNSLKTEDTAVYYCTTDCFWRLGGTTCYEHDAFDVWGQGTMVTVS VL: DIQMTQSPSSLSASVGDRVTITCRASQAIATFLNWYQQKPGKAPKLLIYAASSLQSGVPSRFSGSGSGTDFTLTISSLQPEDFATYYCQQSYNSLHFGGGTKVEIK | 2.89
5 | C1031 (antibody, V domains shown, IgG; V domains only) VH: QLQLQESGPGLVKPSETLSLTCTVSGGSINTSTYYWGWIRQPPGKGLEWIGNIYYSGITYYNPSLKSRVTISVDTSKNQFSLKLRSVTAADTAVYYCARQHRFGSGSSELLWGQGTLVTVSS VL: QSALTQPPSASGSPGQSVTISCTGTSSDVGSYNYVSWYQQHPGKAPKLMIYEVTKRPSGVPDRFSGSKSGNTASLTVSGLQADDEADYYCSSYAGSSNLVFGGGTKLTV | 8.71
6 | C1028 (antibody, V domains shown, IgG; V domains only) VH: QVQLVESGGGVVQPGRSLRLSCADSGFTFSSSGMHWVRQAPGKGLEWVGVISYDGGNKYYADSVKGRFTISRDNSKNTLYLQMNSLRAEDTAVYYCAKDTPGGDDIMTGWGLYGMDVWGQGTTVTVSS VL: DIQMTQSPSSLSASVEDRVTITCRASQSISSYLNWYQQKPGKAPKLLIYAAISLQSGVPSRFSGSGSGTEFTLTISSLQPEDFATYYCQQSYTTPWAFGQGTKVEIK | 3.58
7 | C1033 (antibody, V domains shown, IgG; V domains only) VH: QVQLVQSGAEVKKPGSSVKVSCKASGGTFSRNVISWVRQAPGQGLEWMGGIIPMFGTANYAQKFQGRVTISADESTSTAYMELSSLRSEDTAVYYCAREDFILESAPIRENSYYYYGMDVWGQGTTVTVSS VL: EIVLTQSPGTLSLSPGERATLSCRASQSVSSNYLAWYQQKPGQAPRLLIYDASSRATGIPDRFSGSGSGTDFTLTIRRLEPEDFAVYYCQQYGGSPRTFGQGTKVEIK | 3.63
8 | C1016 (antibody, V domains shown, IgG; V domains only) VH: QVQLQESGPGLVKPSGTLSLTCAVSGGPISSNHWWSWVRQPPGKGLEWIGEVYRNGNTNYHPSLKSRVTMSIDNSKNQFSLSLTSVTAADTAVYYCARGGDLAMGPEYLDFWGQGTLVTVSS VL: QSALTQPASVSGSPGQSITISCTGTSSDVGANNYVSWYQQHPGKAPKLMIYDVINRPSGVSDRFSGSKSGNTASLTISGLQAEDEADYYCSSFSTSSTLLFGGGTKLTVL | 2.16
9 | C1023 (antibody, V domains shown, IgG; V domains only) VH: QVQLVQSGAEMKKPGASVKISCKASGDTFTTNYFHWVRQAPGQGLEWMGIINPSAGSTTYAQRFQGRVTMTGDSSTNTVYLELRSLRSEDTAMYFCAKGSYIPAMRSSFDPWGQGTLVTVSS VL: EIVLTQSPGTLSLSPGERATLSCRASQSVSHRYLAWYQQKPGQAPRLLIDGASNRATGIPDRFSGSGSGTDFTLTISRLEPEDFGVYYCQQYGSSPPFTFGQGTKLEIK | 1.13
10 | C1014 (antibody, V domains shown, IgG; V domains only) VH: QVQLQESGPGLVRPSQTLSLTCTVSGGSIGSGAYWSWIRQHPAKGLEWIGYVYYSGSTFYNPSLETRVSISVDISKDQFSLELTSVTVADTAVYYCAREKIEVVSIEMRPHYYGIDVWGQGTTVTVSS VL: EIVMTQSPATLSVSPGERATLSCRASQSISSNLAWYQQKPGQPPRLLIYGASTRATGIPARFSGSGSGTEFTLTISSLQSEDIAVYYCQHYNNWPPWTFGQGTKVDIK | 2.95
11 | C1009 (antibody, V domains shown, IgG; V domains only) VH: EVQLVESGGGLLQPGGSLRLSCAASGFSVSSNYMTWVRQAPGKGLEWVAAIYSGDSTYYVDSVKGRFIISRDNSKNTVYLHLSSLRAEDTAVYYCARLVGYDFRSGSDGGYFDYWGHGTLVTVSS VL: QSALTQPASVSGSPGQSITISCTGTSSDIGNYNLVSWYQQHPGKAPKLMIYDVSKRPSGVSNRFSGSKSGNTASLTISGLQAEDETDYYCCSYAGSSTWVFGGGTKLTVL | 1.34
12 | C1020 (antibody, V domains shown, IgG; V domains only) VH: QVQLVQSGAEVKKPGASVKISCKASGYSFSNYYIHWVRQAPGQGLEWMGIINPSGNSISYAQKFQGRVTMTGDTSTSTVYMELSSLRSEDTAVYYCARSVFPVPAAGGCDYWGQGTLVTVSS VL: DIQMTQSPSSLSASVGDRVTITCRASQSITTSLNWYQQKPGKAPKLLIYSASTLESGVPSRFSGSGSGTDFTLTISSLQPEDFATYYCQQTYRAPPYTFGQGTKLEIK | 2.06
13 | C1026 (antibody, V domains shown, IgG; V domains only) VH: QVQLVESGGGVVQPGKSLRLSCAASGFIFSSYSMHWVRQAPGKGLEWVAVVSNDGSGKFYADSVRGRFTIFRDNSKNTLYLQVSSLRAEDTAVYYCARDALTSISVLFDCWGQGTLVTVSS VL: DIQMTQSPSSLSASLGDRVTITCRASQSISNYLNWYQQKPGKAPKLLIYGASSLQSGVPSRFSGSGSGTDFTLTISNLQPEDFATYFCQQSYSTPSVTFGGGTKVEIK | 2.5
14 | C1018 (antibody, V domains shown, IgG; V domains only) VH: QVQLVESGGGVVQPGRSLRLLCAASGFTFNTHGMHWVRQAPGKGLEWVAVIWFDGSNKYYADSVKGRFTISRDNSTNTLYLQMNSLRAEDTAVYYCARVYGGLPYYYAIDVWGQGTTVTVSS VL: QSVLTQPPSVSGAPGQRVTISCAGSSSNIGAGYGVHWSQQLPGRPPKLLIYGDSNRPSGVPDRFSGSNSGTSASLAITGLQAEDEAVYYCQSYDRSLRAWVFGGGTKLSVL | 3.09
15 | C1025 (antibody, V domains shown, IgG; V domains only) VH: EVQLVESGGGLVQPGRSLRLSCAASGFTFDDYAMHWVRQVPGKGLEWVSGVSWNGDSVGYADSMEGRFTISRDNAKNSLYLQMNSLRTEDTALYYCAKGVDYSSSSNFDFWGQGTLVTVSS VL: DIQMTQSPSSVSASVGDRVTITCRASQGISSWLAWYQQKPGKAPKLLISLASSLQSGVPSRFSGSGSETDFTLIISSLQPEDFATYYCQQSSSFPLTFGGGTKVEIK | 2.51
16 | C1019 (antibody, V domains shown, IgG; V domains only) VH: QVQLVESGGGVVQPGTPLRLSCAASGFTFSSYAMHWVRQAPGKGLEWVAMISYDGGNKYYADSVKGRFTISRDNSKNTLFLQMNSLRGEDTAVYYCARSFSIRIGHKDNWGQGTLVTVSS VL: NFMLTQPHSVSESPGKTVTISCTGSSGSIANNYVQWYQQRPGSAPTPVIYEDDQRPSGVPDRFSGSIDSSSNSASLSISGLKTEDEADYYCQSYDSTNFWVFGGGTKLTVL | 2.8
17 | C1024 (antibody, V domains shown, IgG; V domains only) VH: QVQLVESGGGVVQPGRSLRLSCAASGFTFSDYAMHWVRQAPGKGLEWVAMISYDGNSQYYADSVKGRFTISRDNSKNTLYLQMNILRPEDTAVYYCARTFSIRIGHHDYWGQGTLVTVSS VL: NFMLTQPHSVSESPGKTVTISCTGSSGSIASNYVHWYQQRPGSAPTTVIFEDNQRPSGVPDRFSGSIDSSSNSASLTISGLKTEDEADYYCQSYDSSSFWVFGGGTKLTVL | 2.37
18 | C1022 (antibody, V domains shown, IgG; V domains only) VH: QVQLVQSGAEVKTPGASVKVSCQASGDTFTSQYLHWVRQAPGQGLEWMGIINPTAGSTTYAQKFQGRVTMTRDTSTSTVYMELRSLRSEDMAVYYCARGGFIPMVRGFIDHWGQGTLVTVSS VL: QSALTQPASVSGSPGQSITISCTGTSSDVGGYNYVSWYQQHPGKAPKLMIYDVSNRPSGVSTRFSGSKSGNTASLTISGLQAEDEADYYCSSPTSSNTHVFGTGTKVTVL | 1.66
19 | C1010 (antibody, V domains shown, IgG; V domains only) VH: QVQLVESGGGVVQPGRSLRLSCAASGFTFSSYAMHWVRQAPGKGLEWVAVISYDGSNKYYADSVKGRFTISRDNSKNTLYLQMNSLRAEDTAVYYCAKKGQPYCGGDCYFYYFDYWGQGTLVTVSS VL: DIQMTQSPSSLSASLGDRVTITCQASQDISNYLNWYQQKPGKAPKLLIYDASNLETGVPSRFSGSGSGTDFTFTISSLQPEDIATYYCQQYDNLPPITFGQGTRLEIK | 2.45
20 | C1011 (antibody, V domains shown, IgG; V domains only) VH: QVQLVESGGGVVQPGRSLRLSCAVSGFTFSHYAMHWVRQAPGKGLEWVAVISYDGADKYYADSVRGRFTIARDNSKNTLFLQMSSLRPEDTAVYYCAKKGQPYCGGDCHFYYLDYWGQGTLVTVSS VL: DIQMTQSPSSLSASVGDRVTITCQASQDISNHLNWYQQKPGKAPKLLIYDASNLETGVPSRFSGSGSGTDFTFTISSLQAEDIATYYCQQYDNLPPITFGQGTRLEIK | 1.49
21 | C1027 (antibody, V domains shown, IgG; V domains only) VH: EVQLVESGGGLVQPGGSLRLSCAASGFIVTTNYMSWVRQAPGKGLEWVSLIYPGGSTFYADSVEGRFTISRDNSKNTLYLQVNSLRVEDTAVYYCARDTFGRGDDHWGQGTLVTVSS VL: DIQMTQSPSSLSASVGDRVTITCQASQDINIYLNWYQQRPGKAPKLLIYDASNLQTGVPSRFSGSGSGTDFTITISSLQPEDIATYYCQQYDNLPRSFGQGTKLEI | 2.42
22 | C1021 (antibody, V domains shown, IgG; V domains only) VH: QVQLVQSGAELKKPGASVKVSCKASGYTFSTYYIHWVRQAPGQGLEWMGIINPEAGSTSYAQKFQGRVTMTTDTSTSTVYMELISLRSQDTAIYYCARDAVGVPAINSLEYWGQGTLVTVSS VL: EIVLTQSPATLSLSPGERATLSCRASQSISSYLAWYQQKPGQAPRLLIYDASNRATDISARFSGSGSGTDFTLTISSLEPEDFAVYYCQHRSNWPPSFTFGGGTKVEIK | 2.53
